In patent publication US20210332123A1 (SUZHOU KANOVA BIOPHARMACEUTICAL, published 2021):
Positions count from the first letter of the chain named. Values belong to the binder of their own block, whether it stands above or below them.

Tests used:
[1] = target: T1, human IL-25 (human, UniProt Q9H293 33-177); test: cell-based or functional assay
T1 sequence (looked up): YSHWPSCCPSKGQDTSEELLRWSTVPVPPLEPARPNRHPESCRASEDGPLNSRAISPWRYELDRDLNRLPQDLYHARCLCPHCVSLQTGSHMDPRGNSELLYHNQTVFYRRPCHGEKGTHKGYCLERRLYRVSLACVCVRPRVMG

[2] = target: T2, cynomolgus IL-25 (cynomolgus, UniProt G7P9V9 33-176); test: ELISA, plate coated with cynomolgus IL-25 (cynoIL25-his), OD450, Example 7 [panel cynoIL25-his]
T2 construct: In-house production
T2 sequence: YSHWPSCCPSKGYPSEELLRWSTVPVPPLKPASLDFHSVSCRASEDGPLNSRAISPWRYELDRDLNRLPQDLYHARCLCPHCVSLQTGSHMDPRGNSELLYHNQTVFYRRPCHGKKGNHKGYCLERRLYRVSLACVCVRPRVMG

[3] = target: T1, human IL-25; test: ELISA, plate coated with human IL-25 (hIl25-HIS), OD450, Example 4; unit from the axis lg(nM) and paragraph 95
Description: MaxiSorp 96-well plates (NUNC #449824, www.thermofisher.com) were coated with 2 μg/ml human IL-25 (R&D systems #1258-IL-025/CF) in 1×PBS (50 μl/well). Plates were incubated at 4° C. overnight. Coating solution was removed and plates were washed once with 200 μl/well PBST (1×PBS with 0.05% tween-20). Then 200 μl/well blocking buffer (1×PBS with 0.05% tween-20, 3% BSA) were added and incubated at room temperature for 1 hour. Blocking buffer was removed and plates were washed three times with 200 μl/well PBST (1×PBS with 0.05% tween-20). Anti-IL-25 antibodies (produced in Example 2) were diluted to 10, 3.33, 1.11, 0.37, 0.123, 0.041, 0.0137, 0.0046, 0.0015, 0.00031, 0.000102, 0.000034 μg/ml by 1×PBS and added to plates (50 μl/well). Plates were incubated at room temperature for 2 hours. Antibodies in the wells were removed and plates were washed three times with 200 μl/well PBST (1×PBS with 0.05% tween-20). Goat anti-human IgG (H&L)-HRP secondary antibody (Jackson Immuno Research #109-035-088, www.jacksonimmuno.com) was diluted 1:5000 in 1×PBS and added to each well (50 μl/well). Plates were incubated at room temperature for 1 hour. Secondary antibody was removed and plates were washed seven times with 200 μl/well PBST (1×PBS with 0.05% tween-20) each time. 50 μl/well TMB (eBioscience #85-00-4201-56, www.ebioscience.com) was added and plates were incubated at room temperature for several minutes. Then 50 μl/well 2N H₂SO₄ was added to stop the reaction. Optical density was measured at 450 nm in relation to human IL-25 binding.

[4] = target: T3, human IL-17D (human, UniProt Q8TAD2 18-202, limits assumed); test: ELISA (FIG. 4)
T3 sequence (looked up): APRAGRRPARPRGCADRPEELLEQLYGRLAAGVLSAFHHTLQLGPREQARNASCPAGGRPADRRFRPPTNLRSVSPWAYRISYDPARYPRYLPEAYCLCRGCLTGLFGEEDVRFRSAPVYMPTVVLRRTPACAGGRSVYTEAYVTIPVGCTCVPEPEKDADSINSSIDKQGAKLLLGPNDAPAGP
Description: (§1) MaxiSorp 96-well plates (NUNC #449824, www.thermofisher.com) were coated with 2 μg/ml human IL-17A (Cell Signaling #89285F, www.cellsignal.com), human IL-17F (Cell Signaling #8906LC, www.cellsignal.com), human IL-17B (Peprotech #200-28, www.peprotech.com), human IL-17C (R&D systems #1234-IL-025/CF, www.rndsystems.com), human IL-17D ((Peprotech #200-27, www.peprotech.com), human IL-17E (R&D systems #1258-IL-025/CF, www.rndsystems.com) in 1×PBS (50 μl/well) respectively. Plates were incubated at 4° C. overnight. Coating solution was removed and plates were washed once with 200 μl/well PBST (1×PBS with 0.05% tween-20). Then 200 μl/well blocking buffer (1×PBS with 0.05% tween-20, 3% BSA) was added and incubated at room temperature for 1 hour. Blocking buffer was removed and plates were washed three times with 200 μl/well PBST (1×PBS with 0.05% tween-20). The anti-IL-25 antibodies (produced in Example 2), were diluted to 10, 3.33, 1.11, 0.37, 0.123, 0.041, 0.0137, 0.0046, 0.0015, 0.00031, 0.000102, 0.000034 μg/ml by 1×PBS and added to the plates (50 μl/well). Plates were incubated at room temperature for 2 hours. Antibodies in the wells were removed and plates were washed three times with 200 μl/well PBST (1×PBS with 0.05% tween-20) each time. Goat anti-human IgG(H&L)-HRP secondary antibody (Jackson Immuno Research #109-035-088, www.jacksonimmuno.com) was diluted 1:5000 in 1×PBS and added to each well (50 μl/well). Plates were incubated at room temperature for 1 hour. Secondary antibody was removed and plates were washed seven times with 200 μl/well PBST (1×PBS with 0.05% tween-20) each time. 50 μl/well TMB (eBioscience #85-00-4201-56, www.ebioscience.com) was added and plates were incubated at room temperature for several minutes. Then 50 μl/well 2N H₂SO₄ was added to stop the reaction. Plates were read at 450 nm.

[5] = target: T4, human IL-17B (human, UniProt Q9UHF5 21-180); test: ELISA (FIG. 4)
T4 sequence (looked up): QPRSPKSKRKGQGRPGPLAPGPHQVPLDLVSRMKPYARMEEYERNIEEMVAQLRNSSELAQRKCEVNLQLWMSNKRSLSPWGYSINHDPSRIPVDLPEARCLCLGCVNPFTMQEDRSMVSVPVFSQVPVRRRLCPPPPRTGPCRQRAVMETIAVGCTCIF
Description: as §1

[6] = target: T5, human IL-17C (human, UniProt Q9P0M4 19-197); test: ELISA (FIG. 4)
T5 sequence (looked up): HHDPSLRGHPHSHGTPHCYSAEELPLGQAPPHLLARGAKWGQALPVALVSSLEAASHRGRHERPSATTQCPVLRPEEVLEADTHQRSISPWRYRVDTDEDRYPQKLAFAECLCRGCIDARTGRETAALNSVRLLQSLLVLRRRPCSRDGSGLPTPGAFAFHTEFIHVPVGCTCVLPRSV
Description: as §1

IC50, CXCL1/GROalpha production of HT-29 cells stimulated by human IL-25 [A] [1]: 7.23 nM
EC50 [2]: 1.51 nM
EC50 [3]: 0.154 nM
B1: VH1-1 + VL2-1 (humanized anti-IL-25 antibody formed by VH1-1 and VL2-1) (antibody, V domains shown)
VH: QVTLKESGPTLVKPTQTLTLTCTFSGFSLSTSGMGLGWIRQPPGKALEWLAHIWWDDVKHYKPALKSRLTITKDTSKNQVVLTMTNVDPVDTATYYCARMGQLHYYGYDYAMDYWGQGTLVTVSS
VL: DIQLTQSPSFLSASVGDRVTITCSASSSVSYMYWYQQKPGKAPKPLIYRTSNLASGVPSRFSGSGSGTEYTLTISSMQPEDFATYYCQLYHSYPPTWTFGQGTKLEIK

EC50 [2]: 1.12 nM
EC50 [3]: 0.196 nM
B2: VH2-1 + VL1-2 (humanized anti-IL-25 antibody formed by VH2-1 and VL1-2) (antibody, V domains shown)
VH: B1 VH with K5R, T10A, V12L, T72S, M84I
VL: EIVLTQSPATLSASPGERVTISCSASSSVSYMYWYQQKPGQAPRPLIYRTSNLASGVPARFSGSGSGTDYTLTISSMEPEDFATYYCQLYHSYPPTWTFGQGTKLEIK

EC50 [3]: 0.187 nM
B3: VH2-1 + VL2-1 (humanized anti-IL-25 antibody formed by VH2-1 and VL2-1) (antibody, V domains shown)
VH: B1 VH with K5R, T10A, V12L, T72S, M84I
VL: B1 VL

IC50, CXCL1/GROalpha production of HT-29 cells stimulated by human IL-25 [A] [1]: 11.4 nM
EC50 [3]: 0.252 nM
B4: VH1-1 + VL1-2 (humanized anti-IL-25 antibody formed by VH1-1 and VL1-2) (antibody, V domains shown)
VH: B1 VH
VL: B2 VL
notes: Captured by anti-human Fc gamma antibody in SPR

binding result [4]: no binding
binding result [5]: no binding
binding result [6]: no binding
EC50 [2]: 2.35 nM
EC50 [3]: 0.187 nM
B5: murine anti-IL-25 monoclonal antibody 18H3 (antibody, V domains shown)
VH: QVTLKESGPGILQPSQTLSLTCSFSGFSLSTSGMGLGWIRQPSGKGLEWLAHIWWDDVKHYKPALKSRLTISKDISSSQVFLTIASVDTADTATYYCARMGQLHYYGYDYAMDYWGQGTSVTVSS
VL: QIVLTQSPAIMSASPGEKVTISCSASSSVSYMYWYQQKPGSSPKPWIYRTSNLASGVPARFSGSGSGTSYSLTISSMEAEDAATYYCQLYHSYPPTWTFGGGTKLEIK
notes: also called parental antibody; parental murine mAb
